According to the supplement of paper PMC9170038:

System: K4 kissing-loop RNA reporter
Assay: apparent KD of K4 kissing-loop reporter; higher = weaker reporter binding
Details: Eterna round: R107
Method: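 RNA-MaP round R107: designed RNA switches with theophylline, tryptophan, arginine or FMN aptamers are transcribed on-chip within common flanks. They are titrated with a labelled K4 kissing-loop RNA reporter in RNA-MaP buffer (100 mM Tris pH 7.5, 80 mM KCl, 4 mM MgCl2), without ligand or with the indicated ligand. Median apparent KD per design.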

[1] = input ligand: theophylline 20 uM
[2] = input ligand: tryptophan 2.4 mM
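Also: bound reporter read as fluorescence of individual clusters on recovered sequencing chips by microscopy, with normalized cluster intensities fitted with a binding model.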

| Sequence | apparent KD of K4 kissing-loop reporter (input ligand: FMN 200 uM) [µM] | apparent KD of K4 kissing-loop reporter (input ligand: arginine 13.2 mM) [µM] | apparent KD of K4 kissing-loop reporter (input ligand: none) [µM] | apparent KD of K4 kissing-loop reporter [1] [µM] | apparent KD of K4 kissing-loop reporter [2] [µM] |
| --- | --- | --- | --- | --- | --- |
| AGAUAGGGCUGAAGGAGCGUCGGAAAAGAAAAGAUGAAAUCCAGUGAUGUUGGAUAAAUCCGACAGGUAGGUCGCAGUUUUAUGA [#01 K4 Arginine B Same State] | 0.126 | 0.129 | 0.133 | 0.161 | 0.12 |
| AGCAGUCCAGGAUCGAAAGAUCCUGAGGUCCGAGGACCGGUACGGCCGCCACUCGGAGUGAUGUUCCGAAGACUGCAAAAUAAAA [#SwitchBubble 5] | 0.302 | 0.236 | 0.108 | 0.135 | 0.105 |
| AGCAUUAUCAGAAGGAGCGUGUAUAAAUCAAUAGUAUUGUAUUCGAGUGAUGUUCGUAAUACACAGGUAGGUCGCUGAUAUUGCA [JR_ExcArginiB_Sub002] | 0.182 | 0.172 | 0.17 | 0.175 | 0.161 |
| AGCAUUUUCAGAAGGAGCGUGAAUUAUUCUUAAUUAUAUUAUACGAGUGAUGUUCGUGUUUCACAGGUAGGUCGCUGAUAUAGCA [JR_SSArginiB_Sub004] | 0.0514 | 0.0903 | 0.0477 | 0.0983 | 0.0455 |
| AGCGAUGUUUUCUCUAAGAGUGAUGUUUUUCGAGGACCGGUACGGCCGCCACUCGAAUAAAGUGUGCGGUAGUGAGCUGUUGACA [#18 K4 Tryptophan A Exclusion] | 0.71 | 0.55 | 0.747 | 0.58 | 0.718 |
| AGCGUCCCUACGGCCGCCACUGGGAGUGAUGUUCCCAGGUUAGGCCUGAGGAUACUAAGGAUCGCCAGGACCGGGUAGCGACCAU [Azaonbe] | 0.0885 | 0.0811 | 0.0803 | 0.0692 | 0.0923 |
| AGCUCAGAGUGACUCGAUAAGAGUCACAAACGAGGACCGGUACGGCCGCCACUCGAAAUAACGAGAGUGAUGUUCUCACUGAGCA [FiskerMod 11 - Jieux - Same State Tryptophan A] | 1.15 | 0.635 | 1.26 | 0.808 | 0.378 |
| AGCUCAGAGUGACUCGAUAAGAGUCACAAACGAGGACCGGUACGGCCGCCACUCGAAAUAACGAGAGUGAUGUUCUCGCUGAGCA [#SwitchBubble 1 #StaticStem #K4Late] | 1.16 | 0.517 | 1 | 0.285 | 0.34 |
| AGCUCAGAGUGACUCGAUAAGAGUCACAAACGAGGACCGGUACGGCCGCCACUCGAAAUAACGAGAGUGAUGUUUUCGCUGAGCA [FiskerMod 6 - Jieux - Same State Tryptophan A] | 0.935 | 0.63 | 0.857 | 0.66 | 0.541 |
| AGGAGCGUGGGAUGGAAAUCGCACGCUCCUCGAGGACCGGUACGGCCGCCACUCGCUCGCGCCGAGUGAUGUUCGGCCGGCGAAC [#2 Same State - Tryptophan A Attempt #11 (HarryS)] | 0.131 | 0.111 | 0.451 | 0.178 | 0.482 |
| AGGAGCUGUCGACAAAAGUCGACAUAAACCAAGGAUAUGACGAAAGUCAGAAGGUGGUCAUAAGACCAGUGAUGUUGGUAGCUCC [FmnA 10 #SwitchBubble #K4Late] | 0.952 | 0.259 | 0.466 | 0.488 | 0.338 |
| AGGAGUGAUGUUCCUACAUAGACGGUCCAACGAGGACCGGUACGGCCGCCACUCGCGACCCAGUGAUGUUGGGAUUCACCGUACA [Exclusion Tryptophan A Gf 14] | 0.723 | 0.753 | 0.818 | 0.836 | 0.812 |
| AGGAGUGAUGUUCCUACAUAGACGGUCCGACGAGGACCGGUACGGCCGCCACUCGCGUCCCAGUGAUGUUGGGAUUCAACGUACA [Exclusion Tryptophan A Gf 15] | 0.12 | 0.15 | 0.139 | 0.149 | 0.122 |
| AGGGAUGUUAAAGGAUAUAGAAAGUGAUGUUAGAAAGUGAGUGAUGUUGAUGUUAGUGAUGUUAUGUUAGAAGGUUAACAAAACG [a] | 0.256 | 0.149 | 0.211 | 0.192 | 0.161 |
| AGGGCUGAGAGCGAUACCAGCGGAUACUAUAUGGUCCAAUAGAGUGAUGUUUUAUAAAGCCGCCCUUGGCAGCGCAAUCUAUUAG [XTheo-B4] | 1.33 | 0.423 | 0.501 | 0.982 | 0.453 |
| AGGUUUUACGGAGGAUAUGCACUGAGGAGGAGAAUAUAGUGAUGUUAUAUAAGAGGAAGGAGAAGAGUAGAAGGCCGUGAGGUUU [SSFMNB.M] | 0.136 | 0.13 | 0.149 | 0.204 | 0.0986 |
| AGGUUUUGAUUAGGAUAUGCACUGAGGAGGAGAAUAUAGUGAUGUUAUAUAAGAGGAAGGAGUAGAGUAGAAGGGAUUGAGGUUU [SSFMNB.R] | 0.249 | 0.164 | 0.199 | 0.172 | 0.188 |
| AGUAAUGAGUGAUGUUCAAAUAGUAAGGAUACCAGUAAUUCAAAAUGCCCUUGGCAGCUUAACGCUACCAAUAGAUAAAUAAUGG [Theophilline A V2 (+2A)] | 0.134 | 0.166 | 0.144 | 0.172 | 0.0968 |
| AGUACAAUGGCGGCCGCCACUCAACAGCAGAUCAAAGAUCUGCUUCACUCAGUGAUGUUGAGUGAGAGGACCGGGCCUUUGUACA [Omei KL Tryp B SS B v4] | 0.793 | 0.614 | 0.783 | 0.853 | 0.216 |
| AGUAGAGCAUCAGAUACCAGACAGAACUGAUGGUAAGGAGUGAUGUUCCUUAAUCAGCUUGUCCCUUGGCAGCUGAUAGUAGUCA [#14 K4 Theophylline B Same State] | 0.388 | 0.417 | 0.431 | 0.348 | 0.383 |
| AGUCCACUCUAAAGAGUGGACCUAAGGGAUACCAGUGAUGUUGGUCACCCUUGGCAGCCCAGGGCCCGGGAUAAACCCGGGCCCA [#09 K4 Theophylline A Exclusion] | 0.12 | 0.1 | 0.113 | 0.099 | 0.113 |

| Sequence | apparent KD of K4 kissing-loop reporter (input ligand: FMN 200 uM) [µM] | apparent KD of K4 kissing-loop reporter (input ligand: arginine 13.2 mM) [µM] | apparent KD of K4 kissing-loop reporter (input ligand: none) [µM] | apparent KD of K4 kissing-loop reporter [1] [µM] | apparent KD of K4 kissing-loop reporter [2] [µM] |
| --- | --- | --- | --- | --- | --- |
| AGUGAACGAGCGGCCGCCACUAACUGAGUGAUGUUCGUGAGUAGUGCUGUUCUCAUGAUUGUUUUUAGGACCGGGUUCGAUGUUG [ttbjmullin] | 0.483 | 0.329 | 0.391 | 0.431 | 0.36 |
| AGUGAUGUAGUGUGUUGUUUGUGAAGUGAUCGAGGACCGGUACGGCCGCCACUCGAGUGAUGAGUGAGUGAUGUUUGUUUAGUGG [#18 K4 Tryptophan A Same State] | 0.379 | 0.283 | 0.376 | 0.412 | 0.303 |
| AGUGAUGUAUGGCGGUUUGUCACUUAUUAUCAGGAUAUAUAAACAAAUAGAAGGGAUGGCGGAGUGAUGUUCCGCCGGCCGCCAU [FMN A Exl V5] | 0.172 | 0.14 | 0.15 | 0.157 | 0.166 |
| AGUGCACUGGCAGGAUAUGUACAGUGAUGUUGUGUAUGUCAGCAAGUCAAAGACUUGCUCUUCUGUGCAGAAGGGCCUGUGUACA [#05 K4 FMN B Exclusion] | 0.442 | 0.526 | 0.668 | 0.532 | 0.534 |
| AGUGCACUGUCAGGAUAUAUACAGUGAUGUUGUGUAUGUCAGCAAGUCAAAGACUUGCUCUUCUGUGUAGAAGGGACUGUGUACA [Omei KL FMN B Exc A v4] | 0.157 | 0.118 | 0.133 | 0.117 | 0.133 |
| AGUUCUUGCCGAAGGAGCGAGGCAGAGUGAUGUUCUGCAGAUGUCGAAAGACAUCAACUGCCUCAGGUAGGUCGCGGCAUGAACA [#05 K4 Arginine B Exclusion] | 0.114 | 0.074 | 0.0996 | 0.0873 | 0.108 |
| AUAAACUUGCAGUGAUGUUGCAAGUGAGACUAGGAUAUCAGGAAGCUGAGAAGGAGUCAUCUCCUUCAAACAUCACUAUGAAGGA [whbob_SS_FMNA__2th178] | 0.403 | 0.287 | 0.336 | 0.232 | 0.292 |
| AUAAUAUGAGUGAUGUUCAUGUAAGCUGAAGGAGCGGACGAAAGUCCAGGUAGGUCGCAGCGUUCCUUUACCUCAUGAGAAGGAG [KL_SSArg-A1 #analogue] | 0.125 | 0.184 | 0.203 | 0.235 | 0.127 |
| AUACGUUUAAGUGAUACCAGACUGGUGAGUGAUGUUUACCAAUAAAUUAAAUUAUUAGCUGUCCCUUGGCAGCACAGUUUAUUUA [JR_ExcTheophyB_Sub005] | 0.258 | 0.33 | 0.317 | 0.323 | 0.229 |
| AUAGGAGUGAUGUUCCUUAGUUUCUCCGAUACCAGUAUGGAAACAUACCCUUGGCAGCGGGAGACCGCUGAUUAGGAAACUAGUC [Theophylline A K4 8] | 0.255 | 0.242 | 0.261 | 0.251 | 0.22 |
| AUCCGAGAAUAUGAUACCAGCUGAGUGUAUCAAGACCGUAUCUCCCGUGCUAGUGAUGUUAGCCCUUGGCAGCAUAUGAAAGCGG [theeternabot_exclusion_KL_Theo_B_15] | 0.635 | 0.518 | 0.467 | 0.517 | 0.57 |
| AUCGUUGUCUGAGGAUAUCGGUUAACUGUAGUGAUGUUACAGAAAAUUCAUAUAAUAUUUUCUAUUCGAGAAGGCAGACUACGUA [JR_ExcFMNB_Sub018] | 0.205 | 0.157 | 0.167 | 0.178 | 0.177 |
| AUCUGUCAAGGACAACAUUACUGAGGUGAUACCAGCAUCGAAAGAUGCCCUUGGCAGCACCAACUUGCAGUGAUGUUGCAAGUAA [BrourdMod 10 - Jieux - Exclusion - Theophylline A] | 0.346 | 0.236 | 0.332 | 0.393 | 0.299 |
| AUGGUAUUGCGAGGAUAUCCUUCAAAUGUGACACUAACGGCAGUGAUGUUGCCGGCGUCUUUUUGAGGAGAAGGCGCGGUGUUAU [Exclusion FMN B GF 24] | 0.114 | 0.112 | 0.129 | 0.114 | 0.114 |
| AUGUCUGAUAGCAGUGAUGUUGCUUCGGAUACCAGACGCGAUCUUGUCCCUUGGCAGCUGACACGGCACGUGCUAGGUUAGAAGG [whbob_Ex_Theo_A_th75] | 0.169 | 0.125 | 0.155 | 0.124 | 0.134 |
| AUUAAUUUCAGAGGAUAUCGUAUUUAUAUUUUAUCUUUCCAUAUUUGCAGUGAUGUUGCAUUAAUUCGAGAAGGCUGAUUUAUAA [JR_ExcFMNB_Sub008] | 0.079 | 0.084 | 0.0615 | 0.0751 | 0.0555 |
| AUUAUAAAGUCGGCCGCCACUGAGAGUAGUGAUGUUACUCUUUUCCUUUAGAUAUUAUAUUUUAUCAGGACCGGGACAUCUGAUU [JR_Nu_ExcTryptoB_Sub024] | 0.147 | 0.126 | 0.148 | 0.134 | 0.13 |
| AUUGAUAUAUAUAUUUGAUUUUUAUGUGAUACCAGACAAGGCAUAGUCCCUUGGCAGCACUUUAUAUUUACGAGUGAUGUUCGUA [JR_SSTheophyA_Sub025] | 0.192 | 0.18 | 0.18 | 0.187 | 0.154 |
| AUUUAGACGAGUGAUGUUCGUGUUAUUACAGAGGAUAUGCGUAAUUGCAGAAGGCUGUAUUUAUAUAUGUUAUGUGGUUUUAAAA [whbob_Ex_FMNA__2th185] | 0.0751 | 0.098 | 0.0776 | 0.0938 | 0.063 |
| AUUUGUUUAUGUGAUACCAGACUUUGCAGUGAUGUUGCAUUUAUUUUAGAAUUUUAUUUAGUCCCUUGGCAGCACUAUGUAUUUA [JR_SSTheophyB_Sub007] | 0.047 | 0.0904 | 0.0531 | 0.0925 | 0.0459 |
| AUUUUUUUAUCAGGAUAUUAGUGAUGGUUUGUUUUGUUAGUGAUGUUGAUAUUUGUUUUAUGUAUUUAAGAAGGGAUUGAGAUGU [seesullin] | 0.067 | 0.0253 | 0.0441 | 0.0292 | 0.0489 |
